Data as given in the supplement of paper PMC5998384.

Key:
[1] = test system: HeLa Kyoto; experiment: thermal stability score vs G1/S (z-score of summed log2 fold changes over temperatures); higher = more thermally stable than in G1/S
[2] = test system: HeLa Kyoto; experiment: solubility in G1/S (NP-40 vs SDS abundance) (log2 ratio); higher = more soluble; details: cell cycle stage: G1/S
[3] = test system: HeLa Kyoto; experiment: melting temperature (median over replicates), in situ; higher = more thermally stable
[4] = test system: HeLa Kyoto; experiment: solubility change mitosis vs G1/S (difference of NP-40 vs SDS log2 ratios) (log2 ratio difference); higher = more soluble in mitosis
[5] = cell cycle stage: early G1 (4.5 h after nocodazole release)
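Throughout, for melting temperature (median over replicates), in situ: HeLa Kyoto cells synchronized by double thymidine or nocodazole block, proteins quantified by TMT10plex mass spectrometry, three independent biological replicates.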
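Throughout, for solubility change mitosis vs G1/S (difference of NP-40 vs SDS log2 ratios): synchronized HeLa Kyoto cells (double thymidine block for G1/S, nocodazole release for mitosis), protein amounts in NP-40 versus SDS lysates quantified by mass spectrometry, three biological replicates.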
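Throughout, for solubility in G1/S (NP-40 vs SDS abundance): HeLa Kyoto cells arrested at G1/S by double thymidine block, proteins quantified by TMT10plex mass spectrometry in mild NP-40 versus SDS extracts, three biological replicates.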
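Throughout, for thermal stability score vs G1/S (z-score of summed log2 fold changes over temperatures): synchronized HeLa Kyoto cells, proteins quantified by TMT10plex mass spectrometry, three biological replicates, mitosis taken 0.5 h after nocodazole release, G1/S directly after double thymidine block.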

NDRG3, sequence (chain, as listed by the source): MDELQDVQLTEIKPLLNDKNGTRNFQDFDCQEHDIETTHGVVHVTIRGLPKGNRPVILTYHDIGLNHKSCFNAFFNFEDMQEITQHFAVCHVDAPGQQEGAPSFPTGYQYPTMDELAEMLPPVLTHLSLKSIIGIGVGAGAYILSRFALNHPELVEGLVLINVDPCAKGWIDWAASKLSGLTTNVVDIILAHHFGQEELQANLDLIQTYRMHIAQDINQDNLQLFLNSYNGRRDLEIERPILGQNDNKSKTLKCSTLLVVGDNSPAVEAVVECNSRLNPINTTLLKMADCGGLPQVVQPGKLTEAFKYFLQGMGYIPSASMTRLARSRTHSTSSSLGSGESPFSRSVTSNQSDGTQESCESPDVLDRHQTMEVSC
MARK2, sequence (chain, as listed by the source): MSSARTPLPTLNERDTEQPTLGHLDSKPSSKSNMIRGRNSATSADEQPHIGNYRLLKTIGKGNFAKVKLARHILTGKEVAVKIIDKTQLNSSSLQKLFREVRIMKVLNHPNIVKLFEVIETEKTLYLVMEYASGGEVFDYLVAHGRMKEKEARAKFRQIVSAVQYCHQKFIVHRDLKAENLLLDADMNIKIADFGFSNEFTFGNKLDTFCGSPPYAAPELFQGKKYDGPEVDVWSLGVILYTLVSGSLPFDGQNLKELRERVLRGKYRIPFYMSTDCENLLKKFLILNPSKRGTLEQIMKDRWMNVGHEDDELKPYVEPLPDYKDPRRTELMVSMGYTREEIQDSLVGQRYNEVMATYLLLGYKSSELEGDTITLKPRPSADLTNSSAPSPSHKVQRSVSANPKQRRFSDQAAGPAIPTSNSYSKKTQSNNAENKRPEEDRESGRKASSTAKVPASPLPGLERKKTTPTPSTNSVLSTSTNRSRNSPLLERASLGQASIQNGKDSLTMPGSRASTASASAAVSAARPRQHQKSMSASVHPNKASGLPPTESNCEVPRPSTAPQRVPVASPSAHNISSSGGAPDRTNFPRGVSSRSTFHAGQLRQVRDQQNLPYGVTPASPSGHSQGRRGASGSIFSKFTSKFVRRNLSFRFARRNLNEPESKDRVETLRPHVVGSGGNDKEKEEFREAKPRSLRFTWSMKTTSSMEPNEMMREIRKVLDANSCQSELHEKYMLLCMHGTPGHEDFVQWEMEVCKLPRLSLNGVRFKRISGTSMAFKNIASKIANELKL
PNO1, sequence (chain, as listed by the source): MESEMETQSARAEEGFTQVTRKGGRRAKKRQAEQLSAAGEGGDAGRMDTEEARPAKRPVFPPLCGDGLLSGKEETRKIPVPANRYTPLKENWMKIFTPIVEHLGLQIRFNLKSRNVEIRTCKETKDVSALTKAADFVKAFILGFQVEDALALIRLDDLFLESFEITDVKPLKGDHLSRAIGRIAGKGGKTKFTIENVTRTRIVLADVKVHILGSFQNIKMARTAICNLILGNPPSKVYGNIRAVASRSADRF

Substance | thermal stability score [1, 5] | thermal stability score ([1]; cell cycle stage: mitosis) | solubility in G1/S (log2) [2] | melting temperature ([3]; cell cycle stage: G1/S) [°C] | melting temperature ([3]; cell cycle stage: mitosis) [°C] | solubility change mitosis (log2) [4]
MPGMVLFGRRWAIASDDLVFPGFFELVVRVLWWIGILTLYLMHRGKLDCAGGALLSSYLIVLMILLAVVICTVSAIMCVSMRGTICNPGPRKSMSKLLYIRLALFFPEMVWASLGAAWVADGVQCDRTVVNGIIATVVVSWIIIAATVVSIIIVFDPLGGKMAPYSSAGPSHLDSHDSSQLLNGLKTAATSVWETRIKLLCCCIGKDDHTRVAFSSTAELFSTYFSDTDLVPSDIAAGLALLHQQQDNIRNNQEPAQVVCHAPGSSQEADLDAELENCHHYMQFAAAAYGWPLYIYRNPLTGLCRIGGDCCRSRTTDYDLVGGDQLNCHFGSILHTTGLQYRDFIHVSFHDKVYELPFLVALDHRKESVVVAVRGTMSLQDVLTDLSAESEVLDVECEVQDRLAHKGISQAARYVYQRLINDGILSQAFSIAPEYRLVIVGHSLGGGAAALLATMLRAAYPQVRCYAFSPPRGLWSKALQEYSQSFIVSLVLGKDVIPRLSVTNLEDLKRRILRVVAHCNKPKYKILLHGLWYELFGGNPNNLPTELDGGDQEVLTQPLLGEQSLLTRWSPAYSFSSDSPLDSSPKYPPLYPPGRIIHLQEEGASGRFGCCSAAHYSAKWSHEAEFSKILIGPKMLTDHMPDILMRALDSVVSDRAACVSCPAQGVSSVDVA [DAGLB] | -0.332 | -1.16 | -0.195 | 54.6 | 53.1 | -0.129
MDGRTPRPQDAPARRKPKAKAPLPPAETKYTDVSSAADSVESTAFIMEQKENMIDKDVELSVVLPGDIIKSTTVHGSKPMMDLLIFLCAQYHLNPSSYTIDLLSAEQNHIKFKPNTPIGMLEVEKVILKPKMLDKKKPTPIIPEKTVRVVINFKKTQKTIVRVSPHASLQELAPIICSKCEFDPLHTLLLKDYQSQEPLDLTKSLNDLGLRELYAMDVNRESCQISQNLDIMKEKENKGFFSFFQRSKKKRDQTASAPATPLVNKHRPTFTRSNTISKPYISNTLPSDAPKKRRAPLPPMPASQSVPQDLAHIQERPASCIVKSMSVDETDKSPCEAGRVRAGSLQLSSMSAGNSSLRRTKRKAPSPPSKIPPHQSDENSRVTALQPVDGVPPDSASEANSPEELSSPAGISSDYSLEEIDEKEELSEVPKVEAENISPKSQDIPFVSTDIINTLKNDPDSALGNGSGEFSQNSMEEKQETKSTDGQEPHSVVYDTSNGKKVVDSIRNLKSLGPNQENVVQNEIIVYPENTEDNMKNGVKKTEINVEGVAKNNNIDMEVERPSNSEAHETDTAISYKENHLAASSVPDQKLNQPSAEKTKDAAIQTTPSCNSFDGKHQDHNLSDSKVEECVQTSNNNISTQHSCLSSQDSVNTSREFRSQGTLIIHSEDPLTVKDPICAHGNDDLLPPVDRIDKNSTASYLKNYPLYRQDYNPKPKPSNEITREYIPKIGMTTYKIVPPKSLEISKDWQSETIEYKDDQDMHALGKKHTHENVKETAIQTEDSAISESPEEPLPNLKPKPNLRTEHQVPSSVSSPDDAMVSPLKPAPKMTRDTGTAPFAPNLEEINNILESKFKSRASNAQAKPSSFFLQMQKRVSGHYVTSAAAKSVHAAPNPAPKELTNKEAERDMLPSPEQTLSPLSKMPHSVPQPLVEKTDDDVIGQAPAEASPPPIAPKPVTIPASQVSTQNLKTLKTFGAPRPYSSSGPSPFALAVVKRSQSFSKERTESPSASALVQPPANTEEGKTHSVNKFVDIPQLGVSDKENNSAHNEQNSQIPTPTDGPSFTVMRQSSLTFQSSDPEQMRQSLLTAIRSGEAAAKLKRVTIPSNTISVNGRSRLSHSMSPDAQDGH [COBLL1] | -0.155 | -0.336 | 0.0471 | 50.5 | 50.8 | -0.0197
PNO1 | 0.178 | 0.628 | -0.779 | 50.3 | 50 | 0.449
MESGFTSKDTYLSHFNPRDYLEKYYKFGSRHSAESQILKHLLKNLFKIFCLDGVKGDLLIDIGSGPTIYQLLSACESFKEIVVTDYSDQNLQELEKWLKKEPEAFDWSPVVTYVCDLEGNRVKGPEKEEKLRQAVKQVLKCDVTQSQPLGAVPLPPADCVLSTLCLDAACPDLPTYCRALRNLGSLLKPGGFLVIMDALKSSYYMIGEQKFSSLPLGREAVEAAVKEAGYTIEWFEVISQSYSSTMANNEGLFSLVARKLSRPL [NNMT] | 3.88 | 4.37 | 0.584 | 53.4 | 53.7 | -0.0166
MARK2 | 0.513 | 0.569 | -0.0826 | 49.6 | 48.7 | 0.0431
MPVWGGGNKCGACGRTVYHAEEVQCDGRSFHRCCFLCMVCRKNLDSTTVAIHDEEIYCKSCYGKKYGPKGYGYGQGAGTLNMDRGERLGIKPESVQPHRPTTNPNTSKFAQKYGGAEKCSRCGDSVYAAEKIIGAGKPWHKNCFRCAKCGKSLESTTLTEKEGEIYCKGCYAKNFGPKGFGYGQGAGALVHAQ [CSRP2] | 1.39 | -3.46 | -0.179 | 59.4 | 54.6 | -0.0558
MEDLGENTMVLSTLRSLNNFISQRVEGGSGLDISTSAPGSLQMQYQQSMQLEERAEQIRSKSHLIQVEREKMQMELSHKRARVELERAASTSARNYEREVDRNQELLTRIRQLQEREAGAEEKMQEQLERNRQCQQNLDAASKRLREKEDSLAQAGETINALKGRISELQWSVMDQEMRVKRLESEKQELQEQLDLQHKKCQEANQKIQELQASQEARADHEQQIKDLEQKLSLQEQDAAIVKNMKSELVRLPRLERELKQLREESAHLREMRETNGLLQEELEGLQRKLGRQEKMQETLVGLELENERLLAKLQSWERLDQTMGLSIRTPEDLSRFVVELQQRELALKDKNSAVTSSARGLEKARQQLQEELRQVSGQLLEERKKRETHEALARRLQKRVLLLTKERDGMRAILGSYDSELTPAEYSPQLTRRMREAEDMVQKVHSHSAEMEAQLSQALEELGGQKQRADMLEMELKMLKSQSSSAEQSFLFSREEADTLRLKVEELEGERSRLEEEKRMLEAQLERRALQGDYDQSRTKVLHMSLNPTSVARQRLREDHSQLQAECERLRGLLRAMERGGTVPADLEAAAASLPSSKEVAELKKQVESAELKNQRLKEVFQTKIQEFRKACYTLTGYQIDITTENQYRLTSLYAEHPGDCLIFKATSPSGSKMQLLETEFSHTVGELIEVHLRRQDSIPAFLSSLTLELFSRQTVA [MAD1L1] | 0.414 | 0.454 | 0.361 | 48.4 | 47.8 | -0.0768
MVLIKEFRVVLPCSVQEYQVGQLYSVAEASKNETGGGEGIEVLKNEPYEKDGEKGQYTHKIYHLKSKVPAFVRMIAPEGSLVFHEKAWNAYPYCRTIVTNEYMKDDFFIKIETWHKPDLGTLENVHGLDPNTWKTVEIVHIDIADRSQVEPADYKADEDPALFQSVKTKRGPLGPNWKKELANSPDCPQMCAYKLVTIKFKWWGLQSKVENFIQKQEKRIFTNFHRQLFCWIDKWIDLTMEDIRRMEDETQKELETMRKRGSVRGTSAADV [PITPNB] | 2.34 | 2.14 | 0.199 | 52.9 | 53.4 | -0.0681
MDGIVTEVAVGVKRGSDELLSGSVLSSPNSNMSSMVVTANGNDSKKFKGEDKMDGAPSRVLHIRKLPGEVTETEVIALGLPFGKVTNILMLKGKNQAFLELATEEAAITMVNYYSAVTPHLRNQPIYIQYSNHKELKTDNTLNQRAQAVLQAVTAVQTANTPLSGTTVSESAVTPAQSPVLRIIIDNMYYPVTLDVLHQIFSKFGAVLKIITFTKNNQFQALLQYGDPVNAQQAKLALDGQNIYNACCTLRIDFSKLVNLNVKYNNDKSRDYTRPDLPSGDGQPALDPAIAAAFAKETSLLAVPGALSPLAIPNAAAAAAAAAAGRVGMPGVSAGGNTVLLVSNLNEEMVTPQSLFTLFGVYGDVQRVKILYNKKDSALIQMADGNQSQLAMNHLNGQKMYGKIIRVTLSKHQTVQLPREGLDDQGLTKDFGNSPLHRFKKPGSKNFQNIFPPSATLHLSNIPPSVAEEDLRTLFANTGGTVKAFKFFQDHKMALLQMATVEEAIQALIDLHNYNLGENHHLRVSFSKSTI [PTBP2] | 0.234 | 0.47 | 0.308 | 48.8 | 49 | -0.0237
MACSIVQFCYFQDLQAARDFLFPHLREEILSGALRRDPSKSTDWEDDGWGAWEENEPQEPEEEGNTCKTQKTSWLQDCVLSLSPTNDLMVIAREQKAVFLVPKWKYSDKGKEEMQFAVGWSGSLNVEEGECVTSALCIPLASQKRSSTGRPDWTCIVVGFTSGYVRFYTENGVLLLAQLLNEDPVLQLKCRTYEIPRHPGVTEQNEELSILYPAAIVTIDGFSLFQSLRACRNQVAKAAASGNENIQPPPLAYKKWGLQDIDTIIDHASVGIMTLSPFDQMKTASNIGGFNAAIKNSPPAMSQYITVGSNPFTGFFYALEGSTQPLLSHVALAVASKLTSALFNAASGWLGWKSKHEEEAVQKQKPKVEPATPLAVRFGLPDSRRHGESICLSPCNTLAAVTDDFGRVILLDVARGIAIRMWKGYRDAQIGWIQTVEDLHERVPEKADFSPFGNSQGPSRVAQFLVIYAPRRGILEVWSTQQGPRVGAFNVGKHCRLLYPGYKIMGLNNVTSQSWQPQTYQICLVDPVSGSVKTVNVPFHLALSDKKSERAKDMHLVKKLAALLKTKSPNLDLVETEIKELILDIKYPATKKQALESILASERLPFSCLRNITQTLMDTLKSQELESVDEGLLQFCANKLKLLQLYESVSQLNSLDFHLDTPFSDNDLALLLRLDEKELLKLQALLEKYKQENTRTNVRFSDDKDGVLPVKTFLEYLEYEKDVLNIKKISEEEYVALGSFFFWKCLHGESSTEDMCHTLESAGLSPQLLLSLLLSVWLSKEKDILDKPQSICCLHTMLSLLSKMKVAIDETWDSQSVSPWWQQMRTACIQSENNGAALLSAHVGHSVAAQISNNMTEKKFSQTVLGADSEALTDSWEALSLDTEYWKLLLKQLEDCLILQTLLHSKGNTQTSKVSSLQAEPLPRLSVKKLLEGGKGGIADSVAKWIFKQDFSPEVLKLANEERDAENPDEPKEGVNRSFLEVSEMEMDLGAIPDLLHLAYEQFPCSLELDVLHAHCCWEYVVQWNKDPEEARFFVRSIEHLKQIFNAHVQNGIALMMWNTFLVKRFSAATYLMDKVGKSPKDRLCRRDVGMSDTAMTSFLGSCLDLLQILMEADVSRDEIQVPVLDTEDAWLSVEGPISIVELALEQKHIHYPLVEHHSILCSILYAVMRFSLKTVKPLSLFDSKGKNAFFKDLTSIQLLPSGEMDPNFISVRQQFLLKVVSAAVQAQHSATKVKDPTEEATPTPFGKDQDWPALAVDLAHHLQVSEDVVRRHYVGELYNYGVDHLGEEAILQVHDKEVLASQLLVLTGQRLAHALLHTQTKEGMELLARLPPTLCTWLKAMDPQDLQNTEVPIATTAKLVNKVIELLPEKHGQYGLALHLIEAVEAISLPSL [RAB3GAP2] | 1.1 | 1.85 | 0.0196 | 48.7 | 49.2 | -0.143
NDRG3 | 0.668 | 0.934 | 0.351 | 52.2 | 52 | -0.371
MPSASASRKSQEKPREIMDAAEDYAKERYGISSMIQSQEKPDRVLVRVRDLTIQKADEVVWVRARVHTSRAKGKQCFLVLRQQQFNVQALVAVGDHASKQMVKFAANINKESIVDVEGVVRKVNQKIGSCTQQDVELHVQKIYVISLAEPRLPLQLDDAVRPEAEGEEEGRATVNQDTRLDNRVIDLRTSTSQAVFRLQSGICHLFRETLINKGFVEIQTPKIISAASEGGANVFTVSYFKNNAYLAQSPQLYKQMCICADFEKVFSIGPVFRAEDSNTHRHLTEFVGLDIEMAFNYHYHEVMEEIADTMVQIFKGLQERFQTEIQTVNKQFPCEPFKFLEPTLRLEYCEALAMLREAGVEMGDEDDLSTPNEKLLGHLVKEKYDTDFYILDKYPLAVRPFYTMPDPRNPKQSNSYDMFMRGEEILSGAQRIHDPQLLTERALHHGIDLEKIKAYIDSFRFGAPPHAGGGIGLERVTMLFLGLHNVRQTSMFPRDPKRLTP [DARS] | 0.0385 | 4.02 | -0.115 | 49.4 | 49.2 | -0.127
